According to patent US12559545 (VANDERBILT UNIVERSITY, dated 2026):

Legend:
[1] = target: T1, HeV-RBP head domain (residues 185-604), recombinant soluble (Hendra virus, UniProt O89343 185-603); test: ELISA, RBP head domain coated on plate, hybridoma IgG
T1 sequence: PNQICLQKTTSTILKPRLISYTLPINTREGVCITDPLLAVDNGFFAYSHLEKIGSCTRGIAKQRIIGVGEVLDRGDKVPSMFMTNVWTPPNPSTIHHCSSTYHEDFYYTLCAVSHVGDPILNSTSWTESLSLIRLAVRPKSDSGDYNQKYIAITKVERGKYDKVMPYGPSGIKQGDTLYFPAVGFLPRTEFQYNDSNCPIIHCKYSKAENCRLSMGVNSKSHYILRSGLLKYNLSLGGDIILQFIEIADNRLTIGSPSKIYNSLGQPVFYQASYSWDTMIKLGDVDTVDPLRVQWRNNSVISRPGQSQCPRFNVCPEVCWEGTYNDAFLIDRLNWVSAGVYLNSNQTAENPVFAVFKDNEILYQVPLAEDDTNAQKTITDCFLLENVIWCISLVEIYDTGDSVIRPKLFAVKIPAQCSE

[2] = target: T2, NiVM-RBP head domain (residues 183-602), recombinant soluble (Nipah virus, strain Malaysia, UniProt Q9IH62 183-602); test: as above
T2 sequence: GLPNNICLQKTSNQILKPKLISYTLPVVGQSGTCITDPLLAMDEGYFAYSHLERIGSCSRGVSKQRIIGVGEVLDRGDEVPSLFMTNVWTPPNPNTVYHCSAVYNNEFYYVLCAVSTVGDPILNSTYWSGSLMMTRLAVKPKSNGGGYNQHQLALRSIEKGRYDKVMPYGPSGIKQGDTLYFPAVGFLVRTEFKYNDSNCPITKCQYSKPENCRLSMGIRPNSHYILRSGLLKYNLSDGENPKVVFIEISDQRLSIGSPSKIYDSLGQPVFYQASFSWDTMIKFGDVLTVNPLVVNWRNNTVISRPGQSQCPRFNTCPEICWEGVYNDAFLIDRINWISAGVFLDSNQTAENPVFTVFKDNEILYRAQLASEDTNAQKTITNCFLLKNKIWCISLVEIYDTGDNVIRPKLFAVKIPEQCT

[3] = target: T3, NiVB-RBP head domain (residues 185-602), recombinant soluble (Nipah virus, strain Bangladesh, UniProt Q9IH62 185-602); test: as above
[4] = target: full-length NiVB-RBP expressed on the surface of transfected cells (Nipah virus, strain Bangladesh, UniProt Q9IH62 182-602)
[5] = target: T4, full-length HeV-RBP expressed on the surface of transfected cells (Hendra virus, UniProt O89343 182-603)
T4 sequence: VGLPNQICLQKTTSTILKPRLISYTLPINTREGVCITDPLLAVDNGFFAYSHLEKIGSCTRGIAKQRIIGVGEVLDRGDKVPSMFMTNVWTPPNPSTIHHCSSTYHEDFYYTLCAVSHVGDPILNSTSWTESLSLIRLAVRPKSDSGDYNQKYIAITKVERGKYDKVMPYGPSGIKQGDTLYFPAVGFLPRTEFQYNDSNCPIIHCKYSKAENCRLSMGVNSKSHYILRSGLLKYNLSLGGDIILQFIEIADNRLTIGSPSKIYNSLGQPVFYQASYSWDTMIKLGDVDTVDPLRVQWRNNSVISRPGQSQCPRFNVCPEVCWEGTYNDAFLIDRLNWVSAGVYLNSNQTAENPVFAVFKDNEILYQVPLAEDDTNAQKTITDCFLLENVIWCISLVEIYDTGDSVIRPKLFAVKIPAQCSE

[6] = target: T5, full-length NiVM-RBP expressed on the surface of transfected cells (Nipah virus, strain Malaysia, UniProt Q9IH62 182-602)
T5 sequence: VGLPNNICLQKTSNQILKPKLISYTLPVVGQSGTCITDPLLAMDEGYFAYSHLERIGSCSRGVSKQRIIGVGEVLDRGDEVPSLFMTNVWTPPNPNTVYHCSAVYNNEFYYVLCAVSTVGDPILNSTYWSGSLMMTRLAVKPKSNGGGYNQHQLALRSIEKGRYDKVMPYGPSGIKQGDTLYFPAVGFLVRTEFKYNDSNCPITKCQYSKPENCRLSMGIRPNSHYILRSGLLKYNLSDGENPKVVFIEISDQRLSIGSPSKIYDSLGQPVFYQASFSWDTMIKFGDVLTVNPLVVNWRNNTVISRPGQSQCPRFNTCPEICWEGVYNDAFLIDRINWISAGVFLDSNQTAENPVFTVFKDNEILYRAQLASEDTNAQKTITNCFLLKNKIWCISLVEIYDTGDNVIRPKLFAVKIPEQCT

[7] = target: NiVB RBP on live Nipah virus Bangladesh (Nipah virus, strain Bangladesh, UniProt Q9IH62 182-602); test: cell-based or functional assay
[8] = target: T6, HeV RBP on live Hendra virus (Hendra virus, UniProt O89343 182-603); test: cell-based or functional assay
T6 sequence: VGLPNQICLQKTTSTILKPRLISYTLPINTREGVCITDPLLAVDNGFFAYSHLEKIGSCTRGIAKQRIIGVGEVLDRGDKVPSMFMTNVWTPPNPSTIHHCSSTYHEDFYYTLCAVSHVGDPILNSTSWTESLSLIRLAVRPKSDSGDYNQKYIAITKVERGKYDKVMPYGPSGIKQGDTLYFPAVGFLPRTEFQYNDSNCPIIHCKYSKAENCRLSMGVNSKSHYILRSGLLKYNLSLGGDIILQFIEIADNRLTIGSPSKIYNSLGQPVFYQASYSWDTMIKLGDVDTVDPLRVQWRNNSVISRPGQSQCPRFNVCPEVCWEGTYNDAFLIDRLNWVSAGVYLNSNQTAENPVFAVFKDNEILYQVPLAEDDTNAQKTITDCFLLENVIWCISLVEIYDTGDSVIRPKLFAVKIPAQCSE

[9] = target: T1, HeV-RBP head domain (residues 185-604), …
[10] = target: T2, NiVM-RBP head domain (residues …)
[11] = target: T3, NiVB-RBP head domain (residues …)

B1: HENV-32 (antibody, V domains shown)
VH: QVQLVQSGAEVKKPGSSVKVSCKVSGGIFNRETINWVRQAPGQGLEWMGRITPIVDVPNYPRKFRGRVTITADKSTSTVYMELSGLRFEDTAIYFCARFRGHNYFDPWGQGTLVTVSS
VL: SYVLTQPPSVSVAPGQTARITCGGNNIGGKSVHWYQQKPGQAPVLVVYDDRDRPSGIPERFSGSNSGDTASLTISRVDAGDEADYFCQVWDNASDEAVFGGGTKLTVL
- Area under the curve [1]: 3.71
- EC50 [1]: 0.36 µg/mL
- Area under the curve [2]: 8
- EC50 [2]: 0.42 µg/mL
- Area under the curve [3]: 6.6
- EC50 [3]: 0.96 µg/mL
- EC50 [4]: 0.836 µg/mL
- EC50 [5]: 0.68 µg/mL
- EC50 [6]: 0.76 µg/mL
- IC50, plaque reduction neutralization of live virus [7]: 0.38 µg/mL
- IC50, plaque reduction neutralization of live virus [8]: 0.27 µg/mL

B2: HENV-32 Fab (Fab, V domains shown)
VH: QVQLVQSGAEVKKPGSSVKVSCKVSGGIFNRETINWVRQAPGQGLEWMGRITPIVDVPNYPRKFRGRVTITADKSTSTVYMELSGLRFEDTAIYFCARFRGHNYFDPWGQGTLVTVSS
VL: SYVLTQPPSVSVAPGQTARITCGGNNIGGKSVHWYQQKPGQAPVLVVYDDRDRPSGIPERFSGSNSGDTASLTISRVDAGDEADYFCQVWDNASDEAVFGGGTKLTVL
- Kd [9]: 2.1 nM
- Kd [10]: 2.2 nM
- Kd [11]: 2.8 nM
